# Reference: publication PMC3594540 (Nature structural & molecular biology, 2013)
# T1: murine Gαq (residues 7–359), biotinylated for bead binding (murine, UniProt P21279 7-359)
# T1 sequence: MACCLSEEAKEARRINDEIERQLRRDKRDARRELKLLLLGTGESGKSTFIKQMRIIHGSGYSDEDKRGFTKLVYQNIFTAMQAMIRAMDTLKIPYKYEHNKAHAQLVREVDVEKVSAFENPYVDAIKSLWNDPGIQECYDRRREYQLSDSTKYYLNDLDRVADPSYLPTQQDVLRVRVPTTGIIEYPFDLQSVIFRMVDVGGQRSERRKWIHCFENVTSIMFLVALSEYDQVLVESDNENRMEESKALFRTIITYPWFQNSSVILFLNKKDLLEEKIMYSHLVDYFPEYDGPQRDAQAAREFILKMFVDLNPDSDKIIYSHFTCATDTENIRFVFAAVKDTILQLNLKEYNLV
# B1: human PLCβ3 (residues 10–1234) (enzyme)
# chain: ALQLEPPTVVETLRRGSKFIKWDEETSSRNLVTLRVDPNGFFLYWTGPNMEVDTLDISSIRDTRTGRYARLPKDPKIREVLGFGGPDARLEEKLMTVVSGPDPVNTVFLNFMAVQDDTAKVWSEELFKLAMNILAQNASRNTFLRKAYTKLKLQVNQDGRIPVKNILKMFSADKKRVETALESCGLKFNRSESIRPDEFSLEIFERFLNKLCLRPDIDKILLEIGAKGKPYLTLEQLMDFINQKQRDPRLNEVLYPPLRPSQARLLIEKYEPNQQFLERDQMSMEGFSRYLGGEENGILPLEALDLSTDMTQPLSAYFINSSHNTYLTAGQLAGTSSVEMYRQALLWGCRCVELDVWKGRPPEEEPFITHGFTMTTEVPLRDVLEAIAETAFKTSPYPVILSFENHVDSAKQQAKMAEYCRSIFGDALLIEPLDKYPLAPGVPLPSPQDLMGRILVKNKKRHRPSAGGPDSAGRKRPLEQSNSALSESSAATEPSSPQLGSPSSDSCPGLSNGEEVGLEKPSLEPQKSLGDEGLNRGPYVLGPADREDEEEDEEEEEQTDPKKPTTDEGTASSEVNATEEMSTLVNYIEPVKFKSFEAARKRNKCFEMSSFVETKAMEQLTKSPMEFVEYNKQQLSRIYPKGTRVDSSNYMPQLFWNVGCQLVALNFQTLDVAMQLNAGVFEYNGRSGYLLKPEFMRRPDKSFDPFTEVIVDGIVANALRVKVISGQFLSDRKVGIYVEVDMFGLPVDTRRKYRTRTSQGNSFNPVWDEEPFDFPKVVLPTLASLRIAAFEEGGKFVGHRILPVSAIRSGYHYVCLRNEANQPLCLPALLIYTEASDYIPDDHQDYAEALINPIKHVSLMDQRARQLAALIGESEAQAGQETCQDTQSQQLGSQPSSNPTPSPLDASPRRPPGPTTSPASTSLSSPGQRDDLIASILSEVAPTPLDELRGHKALVKLRSRQERDLRELRKKHQRKAVTLTRRLLDGLAQAQAEGRCRLRPGALGGAADVEDTKEGEDEAKRYQEFQNRQVQSLLELREAQVDAEAQRRLEHLRQALQRLREVVLDANTTQFKRLKEMNEREKKELQKILDRKRHNSISEAKMRDKHKKEAELTEINRRHITESVNSIRRLEEAQKQRHDRLVAGQQQVLQQLAEEEPKLLAQLAQECQEQRARLPQEIRRSLLGEMPEGLGDGPLVACASNGHAPGSSGHLSGADSESQEENTQL
# Tests used:
# [1] = molecular target: B1; test: cell-based or functional assay
# [2] = molecular target: T1, murine Gαq (residues 7–359), …; test: flow cytometry protein interaction assay
# [3] = molecular target: B1; test: crystal structure
binder,measurement,setting,value
"Gαq-ΔN (domain or fragment, biotinylated (b-Gαq, in the FCPIA)) RRELKLLLLGTGESGKSTFIKQMRIIHGSGYSDEDKRGFTKLVYQNIFTAMQAMIRAMDTLKIPYKYEHNKAHAQLVREVDVEKVSAFENPYVDAIKSLWNDPGIQECYDRRREYQLSDSTKYYLNDLDRVADPSYLPTQQDVLRVRVPTTGIIEYPFDLQSVIFRMVDVGGQRSERRKWIHCFENVTSIMFLVALSEYDQVLVESDNENRMEESKALFRTIITYPWFQNSSVILFLNKKDLLEEKIMYSHLVDYFPEYDGPQRDAQAAREFILKMFVDLNPDSDKIIYSHFTCATDTENIRFVFAAVKDTILQLNLKEYNLV",EC50 of Gαq-stimulated PIP2 hydrolysis ([3H]-IP3 release from liposomes),[1],39 nM
same,Max specific activity of Gαq-stimulated PIP2 hydrolysis (liposomes),[1],1600 nmol IP3/min/nmol PLCβ3
B1,Ki,[2],220 nM
"TEV-cleaved murine Gαq (residues 7–359) (natural protein, at least a fraction of the purified Gαq was palmitoylated (Cys9 and Cys10)) MACCLSEEAKEARRINDEIERQLRRDKRDARRELKLLLLGTGESGKSTFIKQMRIIHGSGYSDEDKRGFTKLVYQNIFTAMQAMIRAMDTLKIPYKYEHNKAHAQLVREVDVEKVSAFENPYVDAIKSLWNDPGIQECYDRRREYQLSDSTKYYLNDLDRVADPSYLPTQQDVLRVRVPTTGIIEYPFDLQSVIFRMVDVGGQRSERRKWIHCFENVTSIMFLVALSEYDQVLVESDNENRMEESKALFRTIITYPWFQNSSVILFLNKKDLLEEKIMYSHLVDYFPEYDGPQRDAQAAREFILKMFVDLNPDSDKIIYSHFTCATDTENIRFVFAAVKDTILQLNLKEYNLV",binding result,[3],binds
